B1: CD99-Ig fusion protein (Fc fusion)
chain: DGGFDLSDALPDNENKKPTAIPKKPSAGDDFDLGDAVVDGENDDPRPPNPPKPMPNPNPNHPSSSGSFSDADLADGVSGGEGKGGSDGGGSHRKEGEEAD
B2: NKp30-Ig fusion protein (Fc fusion, human, UniProt O14931 19-135, looked up, not shown: a dimerising Fc or GST)
chain: LWVSQPPEIRTLEGSSAFLPCSFNASQGRLAIGSVTWFRDEVVPGKEVRNGTPEFRGRLAPLASSRFLHDHQAELHIRDVRGHDASIYVCRVEVLGLGVGTGNGTRLVVEKEHPQLG

Molecular target: HA of influenza virus X-127 (H1N1) on infected cells (influenza A virus X-127 (H1N1))
Assay: not given

Compared with “NKp30-Ig fusion protein (from UniProt O14931 19-135) (Fc fusion)”, “NKp44-Ig fusion protein (from UniProt O95944 22-190) (Fc fusion)” is higher in MFI: 6 for the first, 220 for the second.

Going from “NKp46-Ig fusion protein (from UniProt O76036 22-254) (Fc fusion)” to “NKp46D1-Ig fusion protein (membrane distal domain of NKp46 fused to Fc of human IgG1) (from UniProt O76036 22-120) (Fc fusion)”, the MFI falls from 107 to 5.

First: NKp46D2-Ig fusion protein produced in COS cells (membrane proximal domain of NKp46 fused to Fc of human IgG1) (from UniProt O76036 121-254) (Fc fusion)
Second: B1
The MFI of the first is higher: 160 for the first, 1 for the second.

Molecular target: rosettes of HA from X31 (A/Aichi/2/68xpr/8/34) H3N2 influenza virus (influenza A virus X31 …, UniProt P03437 17-520)
Assay: ELISA, plates coated with HA rosettes

B2: no binding.

— patent US20070203054A1 (YISSUM RESEARCH DEVELOPMENT COMPANY OF THE HEBREW …, published 2007)
